This series in a line: self-splicing fitness, log relative to wild type (ln ratio); higher = more splicing; Tetrahymena group I intron in knt gene, E. coli kanamycin selection, DiMSum; sequences stand for … in CUCUCU…GGAGGGAAAAGUUAUCAGGCAUGCACCUGGUAGCUAGUCUUUAAACCAAUAGAUUGCAUCGGUUUAAAAGGCAAGACCGUCAAAUUGCGGGAAAGGGGUCAACAGCCGUUCAGUACCAAGUCUCAGGGGAAACUUUGAGAUGGCCUUGCAAAGGGUAUGGUAAUAAGCUGACGGACAUGGUCCUAACCACGCAGCCAAGUCCUAAGUCAACAGAUCUUCUGUUGAUAUGGAUGCAGUUCACAGACUAAAUGUCGGUCGGGGAAGAUGUAUUCUUCUCAUAAGAUAUAGUCGGACCUCUCCUUAAUGGGAGCUAGCGGAUGAAGUGAUGCAACACUGGAGCCGCUGGGAACUAAUUUGUAUGCGAAAGUAUAUUGAUUAGUUUUGGAGUACUCGUGGUCG
The method in brief:
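Library with all eight P1ex-region intron nucleotides randomised, intron inside the knt kanamycin-resistance gene on pET-22b(+), in E. coli BL21(DE3). Cells grew overnight at 37°C or 30°C on LB agar with or without 25 μg/mL kanamycin (plus 100 μg/mL carbenicillin, 50 μM IPTG, 0.2% rhamnose), in six replicate transformations. Pooled colonies were amplicon-sequenced on Illumina HiSeq 2500. DiMSum fitness is the error-weighted combination of wild-type-normalised replicate fold changes, kanamycin versus none.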

± gives the uncertainty stated by the source.

Regarding CAACAGCAAUAUUACGCGUU, the “self-splicing fitness (ln)” value was -3.77 ± 0.14 (30 °C) and -1.62 ± 0.08 (37 °C).

As for CAACAGCAAUAUUACGCUGG, the “self-splicing fitness (ln)” value runs as follows: (30 °C) -3.71 ± 0.18; (37 °C) -2.01 ± 0.16.

With CAACAGCAAUAUUACGCUUG, the “self-splicing fitness (ln)” value was -2.71 ± 0.12 (30 °C) and -1.82 ± 0.14 (37 °C).

Consider CAACAGCAAUAUUACGGAAA, for which the “self-splicing fitness (ln)” value was -3.2 ± 0.17 (30 °C) and -2.27 ± 0.18 (37 °C).

As for CAACAGCAAUAUUACGGACA, the “self-splicing fitness (ln)” value is, setting by setting: (30 °C) -1.81 ± 0.1; (37 °C) -0.798 ± 0.097.

As for CAACAGCAAUAUUACGGACG, the “self-splicing fitness (ln)” value by setting is: (30 °C) -0.191 ± 0.063; (37 °C) 0.505 ± 0.082.

CAACAGCAAUAUUACGGAUG: the “self-splicing fitness (ln)” value (30 °C) is -2.53 ± 0.074 and the “self-splicing fitness (ln)” value (37 °C) is -0.732 ± 0.068.

Consider CAACAGCAAUAUUACGGGAU, for which the “self-splicing fitness (ln)” value runs as follows: (30 °C) -3.7 ± 0.15; (37 °C) -2.08 ± 0.15.

Turning to CAACAGCAAUAUUACGGGUC, the “self-splicing fitness (ln)” value by setting is: (30 °C) -4.17 ± 0.17; (37 °C) -2.66 ± 0.14.

As to CAACAGCAAUAUUACGGUCU, the “self-splicing fitness (ln)” value was -3.01 ± 0.11 (30 °C) and -2.07 ± 0.095 (37 °C).

For the sequence CAACAGCAAUAUUACGGUGC, the “self-splicing fitness (ln)” value (30 °C) was -3.12 ± 0.12 and the “self-splicing fitness (ln)” value (37 °C) is -2.8 ± 0.16.

CAACAGCAAUAUUACGUAAC: the “self-splicing fitness (ln)” value runs as follows: (30 °C) -3.71 ± 0.23; (37 °C) -2.41 ± 0.24.

CAACAGCAAUAUUACGUAAG: the “self-splicing fitness (ln)” value is, setting by setting: (30 °C) -0.309 ± 0.044; (37 °C) 0.376 ± 0.055.

Consider CAACAGCAAUAUUACGUAAU, for which the “self-splicing fitness (ln)” value is, setting by setting: (30 °C) -2.46 ± 0.08; (37 °C) -2 ± 0.12.

Turning to CAACAGCAAUAUUACGUAUU, the “self-splicing fitness (ln)” value is -3.48 ± 0.17 (30 °C) and -1.58 ± 0.11 (37 °C).

For CAACAGCAAUAUUACGUCUC, the “self-splicing fitness (ln)” value is -2.24 ± 0.074 (30 °C) and -0.669 ± 0.081 (37 °C).

Take CAACAGCAAUAUUACGUCUG: the “self-splicing fitness (ln)” value was -1.89 ± 0.062 (30 °C) and -1.38 ± 0.063 (37 °C).

With CAACAGCAAUAUUACGUGAU, the “self-splicing fitness (ln)” value is -2.64 ± 0.075 (30 °C) and -2.19 ± 0.1 (37 °C).

As for CAACAGCAAUAUUACGUGGA, the “self-splicing fitness (ln)” value reads like this: (30 °C) -3.08 ± 0.13; (37 °C) -2.08 ± 0.096.

In the case of CAACAGCAAUAUUACGUGGC, the “self-splicing fitness (ln)” value runs as follows: (30 °C) -3.17 ± 0.12; (37 °C) -2.81 ± 0.16.

CAACAGCAAUAUUACGUUGA: the “self-splicing fitness (ln)” value by setting is: (30 °C) -3.22 ± 0.12; (37 °C) -3.19 ± 0.15.

For CAAGAGCAAUAUUACGAAAA, the “self-splicing fitness (ln)” value (37 °C) was -2.78 ± 0.38.

With CAAGAGCAAUAUUACGACAG, the “self-splicing fitness (ln)” value reads like this: (30 °C) -0.511 ± 0.08; (37 °C) 0.045 ± 0.11.

Take CAAGAGCAAUAUUACGAUCG: the “self-splicing fitness (ln)” value reads like this: (30 °C) -0.79 ± 0.071; (37 °C) 0.562 ± 0.1.

With CAAGAGCAAUAUUACGCACG, the “self-splicing fitness (ln)” value was -1.96 ± 0.11 (30 °C) and -0.942 ± 0.12 (37 °C).

On to CAAGAGCAAUAUUACGCAUC, for which the “self-splicing fitness (ln)” value by setting is: (30 °C) -3.5 ± 0.29; (37 °C) -0.397 ± 0.39.

In the case of CAAGAGCAAUAUUACGCCCU, the “self-splicing fitness (ln)” value by setting is: (30 °C) -2.51 ± 0.49; (37 °C) -2.72 ± 0.44.

As for CAAGAGCAAUAUUACGCGUA, the “self-splicing fitness (ln)” value is, setting by setting: (30 °C) -2.2 ± 0.27; (37 °C) -1.95 ± 0.25.

In the case of CAAGAGCAAUAUUACGGAAU, the “self-splicing fitness (ln)” value reads like this: (30 °C) -3.66 ± 0.26; (37 °C) -2.42 ± 0.23.

Regarding CAAGAGCAAUAUUACGGACA, the “self-splicing fitness (ln)” value is, setting by setting: (30 °C) -3.46 ± 0.26; (37 °C) -2 ± 0.32.

Turning to CAAGAGCAAUAUUACGGCGC, the “self-splicing fitness (ln)” value was -3.56 ± 0.27 (30 °C) and -2.17 ± 0.26 (37 °C).

As for CAAGAGCAAUAUUACGGGAU, the “self-splicing fitness (ln)” value was -2.97 ± 0.17 (30 °C) and -2.59 ± 0.31 (37 °C).

Turning to CAAGAGCAAUAUUACGGGUA, the “self-splicing fitness (ln)” value runs as follows: (30 °C) -3.26 ± 0.4; (37 °C) -1.64 ± 0.28.

For CAAGAGCAAUAUUACGGUGG, the “self-splicing fitness (ln)” value (30 °C) is -2 ± 0.082 and the “self-splicing fitness (ln)” value (37 °C) is -1.58 ± 0.11.

Consider CAAGAGCAAUAUUACGGUUU, for which the “self-splicing fitness (ln)” value is, setting by setting: (30 °C) -3.5 ± 0.18; (37 °C) -2.33 ± 0.2.

In the case of CAAGAGCAAUAUUACGUAGG, the “self-splicing fitness (ln)” value (30 °C) is -1.4 ± 0.069 and the “self-splicing fitness (ln)” value (37 °C) was -1.06 ± 0.1.

Consider CAAGAGCAAUAUUACGUCUU, for which the “self-splicing fitness (ln)” value was -3.62 ± 0.25 (30 °C) and -1.46 ± 0.11 (37 °C).

In the case of CAAGAGCAAUAUUACGUGUU, the “self-splicing fitness (ln)” value runs as follows: (30 °C) -3.47 ± 0.15; (37 °C) -3.58 ± 0.26.

As to CAAGAGCAAUAUUACGUUUU, the “self-splicing fitness (ln)” value was -3.35 ± 0.16 (30 °C) and -2.29 ± 0.15 (37 °C).

For the sequence CAAUAGCAAUAUUACGAAAA, the “self-splicing fitness (ln)” value (30 °C) was -2.39 ± 0.34.

With CAAUAGCAAUAUUACGAAUG, the “self-splicing fitness (ln)” value (30 °C) was -1.11 ± 0.076 and the “self-splicing fitness (ln)” value (37 °C) is -0.357 ± 0.098.

For CAAUAGCAAUAUUACGAGCU, the “self-splicing fitness (ln)” value (30 °C) was -4.39 ± 0.42 and the “self-splicing fitness (ln)” value (37 °C) is -3.5 ± 0.42.

Regarding CAAUAGCAAUAUUACGAUAA, the “self-splicing fitness (ln)” value (30 °C) was -3.24 ± 0.48 and the “self-splicing fitness (ln)” value (37 °C) was -3.1 ± 0.33.

Consider CAAUAGCAAUAUUACGCAAA, for which the “self-splicing fitness (ln)” value is, setting by setting: (30 °C) -3.95 ± 0.3; (37 °C) -2.6 ± 0.27.

For CAAUAGCAAUAUUACGCAUU, the “self-splicing fitness (ln)” value is, setting by setting: (30 °C) -4.62 ± 0.24; (37 °C) -2.71 ± 0.17.

For the sequence CAAUAGCAAUAUUACGCGAC, the “self-splicing fitness (ln)” value reads like this: (30 °C) -2.2 ± 0.17; (37 °C) -2.54 ± 0.38.

CAAUAGCAAUAUUACGCUCC: under “37 °C”, the “self-splicing fitness (ln)” value is -0.581 ± 0.39.

As for CAAUAGCAAUAUUACGCUUC, the “self-splicing fitness (ln)” value (30 °C) is -4.65 ± 0.36 and the “self-splicing fitness (ln)” value (37 °C) was -2.95 ± 0.35.

Turning to CAAUAGCAAUAUUACGGAUG, the “self-splicing fitness (ln)” value (30 °C) is -1.51 ± 0.08 and the “self-splicing fitness (ln)” value (37 °C) was -1.12 ± 0.088.

CAAUAGCAAUAUUACGGCAU: the “self-splicing fitness (ln)” value runs as follows: (30 °C) -3.03 ± 0.17; (37 °C) -1.32 ± 0.26.

CAAUAGCAAUAUUACGGCGA: the “self-splicing fitness (ln)” value is -3.93 ± 0.4 (30 °C) and -2.03 ± 0.24 (37 °C).

Consider CAAUAGCAAUAUUACGGGAC, for which the “self-splicing fitness (ln)” value runs as follows: (30 °C) -2.83 ± 0.34; (37 °C) -2.63 ± 0.27.

Consider CAAUAGCAAUAUUACGGGUA, for which the “self-splicing fitness (ln)” value is -3.9 ± 0.21 (30 °C) and -3.12 ± 0.18 (37 °C).

Turning to CAAUAGCAAUAUUACGGUCG, the “self-splicing fitness (ln)” value reads like this: (30 °C) -0.0402 ± 0.066; (37 °C) 0.0285 ± 0.087.

Regarding CAAUAGCAAUAUUACGGUCU, the “self-splicing fitness (ln)” value (30 °C) is -3.24 ± 0.31 and the “self-splicing fitness (ln)” value (37 °C) is -3.15 ± 0.35.

Consider CAAUAGCAAUAUUACGGUGU, for which the “self-splicing fitness (ln)” value runs as follows: (30 °C) -3.14 ± 0.16; (37 °C) -2.27 ± 0.18.

CAAUAGCAAUAUUACGUAGA: the “self-splicing fitness (ln)” value was -3.48 ± 0.16 (30 °C) and -2.37 ± 0.17 (37 °C).

With CAAUAGCAAUAUUACGUAGU, the “self-splicing fitness (ln)” value was -3.31 ± 0.29 (30 °C) and -2.44 ± 0.22 (37 °C).

As to CAAUAGCAAUAUUACGUGAA, the “self-splicing fitness (ln)” value by setting is: (30 °C) -4.02 ± 0.37; (37 °C) -1.7 ± 0.22.

Regarding CAAUAGCAAUAUUACGUGCU, the “self-splicing fitness (ln)” value (37 °C) is -2.65 ± 0.24.

Turning to CAAUAGCAAUAUUACGUUAC, the “self-splicing fitness (ln)” value (37 °C) was -3.23 ± 0.39.

Source of the values: the supplement of paper PMC7877785.
